# Key:
# Assay in all cases: SEC
# [1] = molecular target: Piper methysticum styrylpyrone synthase 1 (PmSPS1) (kava (Piper methysticum))
# [2] = molecular target: Piper methysticum chalcone synthase (PmCHS) (kava (Piper methysticum))
# [3] = molecular target: Piper methysticum kavalactone reductase 1 (PmKLR1) (kava (Piper methysticum))
# [4] = molecular target: Piper methysticum styrylpyrone synthase 2 (PmSPS2) (kava (Piper methysticum))
substance,measurement,setting,value
Piper methysticum styrylpyrone synthase 1 (PmSPS1) (enzyme),stoichiometry N,[1],2
Piper methysticum chalcone synthase (PmCHS) (enzyme),stoichiometry N,[2],2
Piper methysticum kavalactone reductase 1 (PmKLR1) (enzyme),stoichiometry N,[3],2
Piper methysticum styrylpyrone synthase 2 (PmSPS2) (enzyme),stoichiometry N,[4],2

# Reference: doi:10.1101/294439
